According to publication PMC10397247:
Blank lines part the entries; values can stand above or below the binder they belong to.

Columns and labels:
Test in all cases: two-hybrid library CCNG1;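 also: natural log of median RNA to DNA barcode read ratio; higher means stronger binding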
4H2667-bH = biological target: T1, 4H2667-bH
T1 chain: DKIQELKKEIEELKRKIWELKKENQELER

4H2697-bH = biological target: T2, 4H2697-bH
T2 chain: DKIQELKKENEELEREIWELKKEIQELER

4H2729-bH = biological target: T3, 4H2729-bH
T3 chain: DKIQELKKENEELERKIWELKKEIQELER

4H3112-bH = biological target: T4, 4H3112-bH
T4 chain: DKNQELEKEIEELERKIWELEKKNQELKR

4H3185-bH = biological target: T5, 4H3185-bH
T5 chain: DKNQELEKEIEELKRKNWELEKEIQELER

4H3189-bH = biological target: T6, 4H3189-bH
T6 chain: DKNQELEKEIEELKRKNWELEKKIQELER

4H331-bH = biological target: T7, 4H331-bH
T7 chain: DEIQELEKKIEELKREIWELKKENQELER

4H3354-bH = biological target: T8, 4H3354-bH
T8 chain: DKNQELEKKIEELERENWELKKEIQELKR

4H338-bH = biological target: T9, 4H338-bH
T9 chain: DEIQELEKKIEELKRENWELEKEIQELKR

4H3427-bH = biological target: T10, 4H3427-bH
T10 chain: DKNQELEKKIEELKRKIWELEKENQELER

4H3606-bH = biological target: T11, 4H3606-bH
T11 chain: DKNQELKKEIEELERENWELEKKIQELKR

4H370-bH = biological target: T12, 4H370-bH
T12 chain: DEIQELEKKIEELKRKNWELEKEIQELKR

4H3782-bH = biological target: T13, 4H3782-bH
T13 chain: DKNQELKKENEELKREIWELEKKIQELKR

4H3843-bH = biological target: T14, 4H3843-bH
T14 chain: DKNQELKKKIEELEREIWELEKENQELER

4H3843-bN = biological target: T15, 4H3843-bN
T15 chain: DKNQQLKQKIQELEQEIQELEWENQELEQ

4H3855-bH = biological target: T16, 4H3855-bH
T16 chain: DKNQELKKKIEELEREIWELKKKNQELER

4H4001-bH = biological target: T17, 4H4001-bH
T17 chain: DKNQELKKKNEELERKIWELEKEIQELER

4H454-bH = biological target: T18, 4H454-bH
T18 chain: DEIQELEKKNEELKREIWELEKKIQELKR

4H462-bH = biological target: T19, 4H462-bH
T19 chain: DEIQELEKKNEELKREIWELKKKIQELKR

4H568-bH = biological target: T20, 4H568-bH
T20 chain: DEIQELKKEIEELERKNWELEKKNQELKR

4H607-bH = biological target: T21, 4H607-bH
T21 chain: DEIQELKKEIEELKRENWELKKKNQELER

4H687-bH = biological target: T22, 4H687-bH
T22 chain: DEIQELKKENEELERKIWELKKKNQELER

4H717-bH = biological target: T23, 4H717-bH
T23 chain: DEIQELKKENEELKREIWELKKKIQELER

4H72-bH = biological target: T24, 4H72-bH
T24 chain: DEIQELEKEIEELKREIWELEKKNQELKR

4H754-bH = biological target: T25, 4H754-bH
T25 chain: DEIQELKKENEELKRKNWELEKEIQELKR

4H797-bH = biological target: T26, 4H797-bH
T26 chain: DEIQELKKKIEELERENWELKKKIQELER

4H883-bH = biological target: T27, 4H883-bH
T27 chain: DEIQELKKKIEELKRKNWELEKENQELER

4H908-bH = biological target: T28, 4H908-bH
T28 chain: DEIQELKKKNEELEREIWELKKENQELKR

4H918-bH = biological target: T29, 4H918-bH
T29 chain: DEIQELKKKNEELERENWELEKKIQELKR

4H953-bH = biological target: T30, 4H953-bH
T30 chain: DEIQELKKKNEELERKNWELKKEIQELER

4H967-bH = biological target: T31, 4H967-bH
T31 chain: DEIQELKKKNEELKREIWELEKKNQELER

O4-bN = biological target: T32, O4-bN
T32 chain: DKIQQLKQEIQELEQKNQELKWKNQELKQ

4H2667-bN = biological target: T33, 4H2667-bN
T33 chain: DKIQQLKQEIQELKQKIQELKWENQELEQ

4H2697-bN = biological target: T34, 4H2697-bN
T34 chain: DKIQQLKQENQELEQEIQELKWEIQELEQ

4H2729-bN = biological target: T35, 4H2729-bN
T35 chain: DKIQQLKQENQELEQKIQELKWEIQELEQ

4H3112-bN = biological target: T36, 4H3112-bN
T36 chain: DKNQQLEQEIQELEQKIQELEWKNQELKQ

4H3185-bN = biological target: T37, 4H3185-bN
T37 chain: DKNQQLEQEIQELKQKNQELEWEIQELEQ

4H3189-bN = biological target: T38, 4H3189-bN
T38 chain: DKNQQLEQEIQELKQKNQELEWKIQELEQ

4H331-bN = biological target: T39, 4H331-bN
T39 chain: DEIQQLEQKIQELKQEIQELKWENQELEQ

4H3354-bN = biological target: T40, 4H3354-bN
T40 chain: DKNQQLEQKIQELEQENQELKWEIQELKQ

4H338-bN = biological target: T41, 4H338-bN
T41 chain: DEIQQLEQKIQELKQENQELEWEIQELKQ

4H3427-bN = biological target: T42, 4H3427-bN
T42 chain: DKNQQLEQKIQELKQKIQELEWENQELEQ

4H3606-bN = biological target: T43, 4H3606-bN
T43 chain: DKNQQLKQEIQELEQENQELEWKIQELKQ

4H370-bN = biological target: T44, 4H370-bN
T44 chain: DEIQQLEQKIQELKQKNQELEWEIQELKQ

4H3782-bN = biological target: T45, 4H3782-bN
T45 chain: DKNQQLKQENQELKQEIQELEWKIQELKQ

4H3855-bN = biological target: T46, 4H3855-bN
T46 chain: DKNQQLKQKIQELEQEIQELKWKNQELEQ

4H4001-bN = biological target: T47, 4H4001-bN
T47 chain: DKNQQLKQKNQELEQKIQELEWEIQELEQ

4H454-bN = biological target: T48, 4H454-bN
T48 chain: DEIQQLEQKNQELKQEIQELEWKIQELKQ

4H462-bN = biological target: T49, 4H462-bN
T49 chain: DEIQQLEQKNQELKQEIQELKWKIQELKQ

4H568-bN = biological target: T50, 4H568-bN
T50 chain: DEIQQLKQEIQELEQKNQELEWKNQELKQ

4H575-bA = biological target: T51, 4H575-bA
T51 chain: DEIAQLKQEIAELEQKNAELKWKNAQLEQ

4H607-bN = biological target: T52, 4H607-bN
T52 chain: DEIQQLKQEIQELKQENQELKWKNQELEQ

4H687-bN = biological target: T53, 4H687-bN
T53 chain: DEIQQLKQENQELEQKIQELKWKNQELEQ

4H717-bN = biological target: T54, 4H717-bN
T54 chain: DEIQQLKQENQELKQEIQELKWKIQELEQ

4H72-bN = biological target: T55, 4H72-bN
T55 chain: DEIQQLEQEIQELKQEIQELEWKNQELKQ

4H754-bN = biological target: T56, 4H754-bN
T56 chain: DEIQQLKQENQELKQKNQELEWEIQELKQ

4H797-bN = biological target: T57, 4H797-bN
T57 chain: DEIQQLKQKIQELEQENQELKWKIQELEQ

4H883-bN = biological target: T58, 4H883-bN
T58 chain: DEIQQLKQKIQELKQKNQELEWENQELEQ

4H908-bN = biological target: T59, 4H908-bN
T59 chain: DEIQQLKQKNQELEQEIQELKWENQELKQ

4H918-bN = biological target: T60, 4H918-bN
T60 chain: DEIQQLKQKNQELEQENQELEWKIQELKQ

4H953-bN = biological target: T61, 4H953-bN
T61 chain: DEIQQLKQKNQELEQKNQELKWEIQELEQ

4H967-bN = biological target: T62, 4H967-bN
T62 chain: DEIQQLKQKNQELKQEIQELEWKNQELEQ

interaction score (4H2667-bH): 0.801 | interaction score (4H2697-bH): 1.31 | interaction score (4H2729-bH): 1.75 | interaction score (4H3112-bH): -0.422 | interaction score (4H3185-bH): 0.789 | interaction score (4H3189-bH): -0.454 | interaction score (4H331-bH): 1.71 | interaction score (4H3354-bH): -0.302 | interaction score (4H338-bH): 1.42 | interaction score (4H3427-bH): 1.38 | interaction score (4H3606-bH): 1.83 | interaction score (4H370-bH): 0.226 | interaction score (4H3782-bH): -0.0673 | interaction score (4H3843-bH): 1.84 | interaction score (4H3843-bN): 1.56 | interaction score (4H3855-bH): 0.693 | interaction score (4H4001-bH): -2.94 | interaction score (4H454-bH): 0.0385 | interaction score (4H462-bH): 1.01 | interaction score (4H568-bH): 0.0192 | interaction score (4H607-bH): 0.145 | interaction score (4H687-bH): -0.168 | interaction score (4H717-bH): -0.859 | interaction score (4H72-bH): 0.612 | interaction score (4H754-bH): -0.933 | interaction score (4H797-bH): -0.539 | interaction score (4H883-bH): 0.434 | interaction score (4H908-bH): -1.3 | interaction score (4H918-bH): -2.64 | interaction score (4H953-bH): 0.0882 | interaction score (4H967-bH): -0.166 | interaction score (O4-bN): -0.678
Binder: DKIQELKKEIEELKRKIWELKKENQELER [4H2667-bH]

interaction score (4H2667-bN): 0.858 | interaction score (4H2697-bN): -0.288 | interaction score (4H2729-bN): -0.251 | interaction score (4H3112-bN): 1.72 | interaction score (4H3185-bN): -0.735 | interaction score (4H3189-bN): -0.514 | interaction score (4H331-bN): 2.18 | interaction score (4H3354-bN): -1.12 | interaction score (4H338-bN): 0.105 | interaction score (4H3427-bN): 1.56 | interaction score (4H3606-bN): 0.163 | interaction score (4H370-bN): -0.572 | interaction score (4H3782-bN): -0.86 | interaction score (4H3843-bN): 1.5 | interaction score (4H3855-bN): -0.551 | interaction score (4H4001-bN): 0.942 | interaction score (4H454-bN): 0.31 | interaction score (4H462-bN): -1.28 | interaction score (4H568-bN): -0.122 | interaction score (4H575-bA): -1.2 | interaction score (4H607-bN): -1.69 | interaction score (4H687-bN): -1.55 | interaction score (4H717-bN): -0.215 | interaction score (4H72-bN): 0.513 | interaction score (4H754-bN): -0.798 | interaction score (4H797-bN): -1.02 | interaction score (4H883-bN): -0.0532 | interaction score (4H908-bN): -0.467 | interaction score (4H918-bN): -1.12 | interaction score (4H953-bN): -0.794 | interaction score (4H967-bN): -0.671
Binder: DKIQQLKQEIQELKQKIQELKWENQELEQ [4H2667-bN]
